T1: CAPRIN-1 protein expressed on the membrane surface of human cancer cells (human, UniProt Q14444 2-709)
T1 sequence (looked up): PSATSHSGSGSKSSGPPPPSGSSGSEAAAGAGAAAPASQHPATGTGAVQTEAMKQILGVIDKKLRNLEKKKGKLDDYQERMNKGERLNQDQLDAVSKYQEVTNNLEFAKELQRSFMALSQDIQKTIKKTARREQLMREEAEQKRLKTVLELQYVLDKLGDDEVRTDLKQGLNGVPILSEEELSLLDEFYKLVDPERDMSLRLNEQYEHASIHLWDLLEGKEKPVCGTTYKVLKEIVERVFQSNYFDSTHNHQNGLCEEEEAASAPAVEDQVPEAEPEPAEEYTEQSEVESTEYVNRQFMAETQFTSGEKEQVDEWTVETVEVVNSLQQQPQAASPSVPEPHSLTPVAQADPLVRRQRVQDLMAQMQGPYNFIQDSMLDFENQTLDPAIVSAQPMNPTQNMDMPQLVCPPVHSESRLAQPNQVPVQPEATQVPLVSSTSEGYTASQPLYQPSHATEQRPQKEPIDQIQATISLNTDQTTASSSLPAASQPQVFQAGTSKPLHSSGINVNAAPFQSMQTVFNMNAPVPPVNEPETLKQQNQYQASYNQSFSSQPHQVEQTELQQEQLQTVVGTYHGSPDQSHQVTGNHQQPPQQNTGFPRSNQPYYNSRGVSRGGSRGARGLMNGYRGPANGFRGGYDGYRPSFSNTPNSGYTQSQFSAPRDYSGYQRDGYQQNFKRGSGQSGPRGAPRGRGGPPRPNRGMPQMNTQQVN


These binders were tested against T1, CAPRIN-1 protein expressed on the … (assay: cell-based or functional assay).

| Binder | ADCC cytotoxic activity (51Cr release) on 22Rv1 | ADCC cytotoxic activity (51Cr release) on A-673 | ADCC cytotoxic activity (51Cr release) on BT-474 | ADCC cytotoxic activity (51Cr release) on Caki-2 | ADCC cytotoxic activity (51Cr release) on FaDu | ADCC cytotoxic activity (51Cr release) on G-361 | ADCC cytotoxic activity (51Cr release) on HEC-1-A | ADCC cytotoxic activity (51Cr release) on HT-29 | ADCC cytotoxic activity (51Cr release) on HT-1080 | ADCC cytotoxic activity (51Cr release) on HT-1376 |
| --- | --- | --- | --- | --- | --- | --- | --- | --- | --- | --- |
| humanized antibody #0 (antibody, V domains shown) VH: EVQLVESGGGLVQPGGSLRLSCAASGFSLSSHSLGWVRQAPGKGLEWIGDIRSGGSAYYANWAKGRFTISRDNSKNTLYLQMNSLRAEDTAVYFCTRTNGPSDLTNRLDLWGQGTLVTVSS VL: AIQMTQSPSSLSASVGDRVTINCQASQSLYNNENLAWFQQKPGKAPKRLIYGASTLASGVSSRFSGSGSGTDFTLTISSLQPEDFAIYYCLGEFSCGSADCFAFGGGTKVEIK | ≥ 38% | ≥ 40% | ≥ 46% | ≥ 26% | ≥ 35% | ≥ 15% | ≥ 40% | ≥ 35% | ≥ 20% | ≥ 28% |
| humanized antibody #1 (antibody, V domains shown) VH: EVQLVESGGGLVQPGGSLRLSCAASGFSLSSHSLGWVRQAPGKGLEWIGDIRSGGSAYYANWAKGRFTISRDNSKNTLYLQMNSLRAEDTAVYYCTRTNGPSDLTNRLDLWGQGTLVTVSS VL: AIQMTQSPSSLSASVGDRVTINCQASQSLYNNENLAWFQQKPGKAPKRLIYGASTLASGVSSRFSGSGSGTDFTLTISSLQPEDFAIYYCLGEFSCGSADCFAFGGGTKVEIK | ≥ 38% | ≥ 40% | ≥ 46% | ≥ 26% | ≥ 35% | ≥ 15% | ≥ 40% | ≥ 35% | ≥ 20% | ≥ 28% |
| humanized antibody #3 (antibody, V domains shown) VH: EVQLVESGGGLVQPGGSLRLSCAASGFSLSSHSLGWVRQAPGKGLEWIGDIRSGGSAYYANWAKGRFTISRDNSKNTLYLQMNSLRAEDTAVYYCTRTNGPSDLTNRLDLWGQGTLVTVSS VL: EQVLTQSPSSLSASVGDRVTINCQASQSLYNNENLAWFQQKPGKVPKRLIYGASTLASGVSSRFSGSGSGTEFTLTISNLQPEDFAIYYCLGEFSCGSADCFAFGGGTKVEIK | ≥ 45% | ≥ 46% | ≥ 50% | ≥ 33% | ≥ 40% | ≥ 21% | ≥ 45% | ≥ 40% | ≥ 25% | ≥ 40% |
| humanized antibody #4 (antibody, V domains shown) VH: EVQLVESGGGLVQPGGSLRLSCAASGFSLSSHSLGWVRQAPGKGLEWIGDIRSGGSAYYANWAKGRFTISRDNSKNTLYLQMNSLRAEDTAVYFCTRTNGPSDLTNRLDLWGQGTLVTVSS VL: EIVLTQSPSSLSASVGDRVTINCQASQSLYNNENLAWFQQKPGKVPKRLIYGASTLASGVSSRFSGSGSGTEFTLTISNLQPEDFATYYCLGEFSCGSADCFAFGGGTKVEIK | ≥ 45% | ≥ 46% | ≥ 50% | ≥ 33% | ≥ 40% | ≥ 21% | ≥ 45% | ≥ 40% | ≥ 25% | ≥ 40% |

Same assay, conditions: not given

| Binder | ADCC cytotoxic activity (51Cr release) on Hep3B | ADCC cytotoxic activity (51Cr release) on IM-9 | ADCC cytotoxic activity (51Cr release) on MDA-MB-361 | ADCC cytotoxic activity (51Cr release) on NCI-H2452 | ADCC cytotoxic activity (51Cr release) on NCI-N87 | ADCC cytotoxic activity (51Cr release) on NT/D1 | ADCC cytotoxic activity (51Cr release) on OCI-AML5 | ADCC cytotoxic activity (51Cr release) on OE33 | ADCC cytotoxic activity (51Cr release) on Panc10.5 | ADCC cytotoxic activity (51Cr release) on QG56 |
| --- | --- | --- | --- | --- | --- | --- | --- | --- | --- | --- |
| humanized antibody #0 (antibody, V domains shown) VH: EVQLVESGGGLVQPGGSLRLSCAASGFSLSSHSLGWVRQAPGKGLEWIGDIRSGGSAYYANWAKGRFTISRDNSKNTLYLQMNSLRAEDTAVYFCTRTNGPSDLTNRLDLWGQGTLVTVSS VL: AIQMTQSPSSLSASVGDRVTINCQASQSLYNNENLAWFQQKPGKAPKRLIYGASTLASGVSSRFSGSGSGTDFTLTISSLQPEDFAIYYCLGEFSCGSADCFAFGGGTKVEIK | ≥ 21% | ≥ 27% | ≥ 40% | ≥ 31% | ≥ 34% | ≥ 25% | ≥ 15% | ≥ 30% | ≥ 24% | ≥ 38% |
| humanized antibody #1 (antibody, V domains shown) VH: EVQLVESGGGLVQPGGSLRLSCAASGFSLSSHSLGWVRQAPGKGLEWIGDIRSGGSAYYANWAKGRFTISRDNSKNTLYLQMNSLRAEDTAVYYCTRTNGPSDLTNRLDLWGQGTLVTVSS VL: AIQMTQSPSSLSASVGDRVTINCQASQSLYNNENLAWFQQKPGKAPKRLIYGASTLASGVSSRFSGSGSGTDFTLTISSLQPEDFAIYYCLGEFSCGSADCFAFGGGTKVEIK | ≥ 21% | ≥ 27% | ≥ 40% | ≥ 31% | ≥ 34% | ≥ 25% | ≥ 15% | ≥ 30% | ≥ 24% | ≥ 38% |
| humanized antibody #3 (antibody, V domains shown) VH: EVQLVESGGGLVQPGGSLRLSCAASGFSLSSHSLGWVRQAPGKGLEWIGDIRSGGSAYYANWAKGRFTISRDNSKNTLYLQMNSLRAEDTAVYYCTRTNGPSDLTNRLDLWGQGTLVTVSS VL: EQVLTQSPSSLSASVGDRVTINCQASQSLYNNENLAWFQQKPGKVPKRLIYGASTLASGVSSRFSGSGSGTEFTLTISNLQPEDFAIYYCLGEFSCGSADCFAFGGGTKVEIK | ≥ 25% | ≥ 30% | ≥ 45% | ≥ 39% | ≥ 38% | ≥ 30% | ≥ 18% | ≥ 33% | ≥ 30% | ≥ 42% |
| humanized antibody #4 (antibody, V domains shown) VH: EVQLVESGGGLVQPGGSLRLSCAASGFSLSSHSLGWVRQAPGKGLEWIGDIRSGGSAYYANWAKGRFTISRDNSKNTLYLQMNSLRAEDTAVYFCTRTNGPSDLTNRLDLWGQGTLVTVSS VL: EIVLTQSPSSLSASVGDRVTINCQASQSLYNNENLAWFQQKPGKVPKRLIYGASTLASGVSSRFSGSGSGTEFTLTISNLQPEDFATYYCLGEFSCGSADCFAFGGGTKVEIK | ≥ 25% | ≥ 30% | ≥ 45% | ≥ 39% | ≥ 38% | ≥ 30% | ≥ 18% | ≥ 33% | ≥ 30% | ≥ 42% |

Same assay, conditions: not given

| Binder | ADCC cytotoxic activity (51Cr release) on RD-ES | ADCC cytotoxic activity (51Cr release) on RPM11666 | ADCC cytotoxic activity (51Cr release) on Ramos | ADCC cytotoxic activity (51Cr release) on SKOV3 | ADCC cytotoxic activity (51Cr release) on T24 | ADCC cytotoxic activity (51Cr release) on TGBC14TKB | ADCC cytotoxic activity (51Cr release) on TT | ADCC cytotoxic activity (51Cr release) on U-87MG |
| --- | --- | --- | --- | --- | --- | --- | --- | --- |
| humanized antibody #0 (antibody, V domains shown) VH: EVQLVESGGGLVQPGGSLRLSCAASGFSLSSHSLGWVRQAPGKGLEWIGDIRSGGSAYYANWAKGRFTISRDNSKNTLYLQMNSLRAEDTAVYFCTRTNGPSDLTNRLDLWGQGTLVTVSS VL: AIQMTQSPSSLSASVGDRVTINCQASQSLYNNENLAWFQQKPGKAPKRLIYGASTLASGVSSRFSGSGSGTDFTLTISSLQPEDFAIYYCLGEFSCGSADCFAFGGGTKVEIK | ≥ 31% | ≥ 30% | ≥ 15% | ≥ 27% | ≥ 30% | ≥ 25% | ≥ 30% | ≥ 24% |
| humanized antibody #1 (antibody, V domains shown) VH: EVQLVESGGGLVQPGGSLRLSCAASGFSLSSHSLGWVRQAPGKGLEWIGDIRSGGSAYYANWAKGRFTISRDNSKNTLYLQMNSLRAEDTAVYYCTRTNGPSDLTNRLDLWGQGTLVTVSS VL: AIQMTQSPSSLSASVGDRVTINCQASQSLYNNENLAWFQQKPGKAPKRLIYGASTLASGVSSRFSGSGSGTDFTLTISSLQPEDFAIYYCLGEFSCGSADCFAFGGGTKVEIK | ≥ 31% | ≥ 30% | ≥ 15% | ≥ 27% | ≥ 30% | ≥ 25% | ≥ 30% | ≥ 24% |
| humanized antibody #3 (antibody, V domains shown) VH: EVQLVESGGGLVQPGGSLRLSCAASGFSLSSHSLGWVRQAPGKGLEWIGDIRSGGSAYYANWAKGRFTISRDNSKNTLYLQMNSLRAEDTAVYYCTRTNGPSDLTNRLDLWGQGTLVTVSS VL: EQVLTQSPSSLSASVGDRVTINCQASQSLYNNENLAWFQQKPGKVPKRLIYGASTLASGVSSRFSGSGSGTEFTLTISNLQPEDFAIYYCLGEFSCGSADCFAFGGGTKVEIK | ≥ 40% | ≥ 36% | ≥ 18% | ≥ 31% | ≥ 33% | ≥ 30% | ≥ 35% | ≥ 29% |
| humanized antibody #4 (antibody, V domains shown) VH: EVQLVESGGGLVQPGGSLRLSCAASGFSLSSHSLGWVRQAPGKGLEWIGDIRSGGSAYYANWAKGRFTISRDNSKNTLYLQMNSLRAEDTAVYFCTRTNGPSDLTNRLDLWGQGTLVTVSS VL: EIVLTQSPSSLSASVGDRVTINCQASQSLYNNENLAWFQQKPGKVPKRLIYGASTLASGVSSRFSGSGSGTEFTLTISNLQPEDFATYYCLGEFSCGSADCFAFGGGTKVEIK | ≥ 40% | ≥ 36% | ≥ 18% | ≥ 31% | ≥ 33% | ≥ 30% | ≥ 35% | ≥ 29% |
